From US20120014876A1 (ACADEMISCH ZIEKENHUIS MAASTRICHT, published 2012)
Bridges are numbered along the chain shown (N, C = ends). Where no end group is shown, it is not given here. rhodamine = not defined here; alkyl = not defined here

B1: Peptide UM206 (peptide)
peptide: Ac-CNKTSEGMDGCEL-NH2
modifications: cysteine pairing not given here
notes: Linear form, no disulfide bridge between the two cysteines; also called antagonist UM206
B2: Peptide UM207 (peptide)
peptide: Ac-GIKECQYQFRHRRWNCSTVD-NH2
modifications: cysteine pairing not given here
B3: Peptide UM206(S-S) (peptide)
peptide: Ac-CNKTSEGMDGCEL-NH2
modifications: disulfide 1-11
B4: Wnt3a (ligand)
chain: SYPIWWSLAVGPQYSSLGSQPILCASIPGLVPKQLRFCRNYVEIMPSVAEGIKIGIQECQHQFRGRRWNCTTVHDSLAIFGPVLDKATRESAFVHAIASAGVAFAVTRSCAEGTAAICGCSSRHQGSPGKGWKWGGCSEDIEFGGMVSREFADARENRPDARSAMNRHNNEAGRQAIASHMHLKCKCHGLSGSCEVKTCWWSQPDFRAIGDFLKDKYDSASEMVVEKHRESRGWVETLRPRYTYFKVPTERDLVYYEASPNFCEPNPETGSFGTRDRTCNVSSHGIDGCDLLCCGRGHNARAERRREKCRCVFHWCCYVSCQECTRVYDVHTCK
B5: rhodamine-labeled UM206 (peptide)
peptide: Ac-CNK(rhodamine)TSEGMDGCEL-NH2
modifications: cysteine pairing not given here; reading uncertain
notes: UM206 with rhodamine on Lys3; end groups as UM206 (Ac-, -NH2) not restated; also called UM206-rhodamine; UM206-Rhodamine
B6: UM206 (C = C-alkyl) (peptide)
peptide: C(alkyl)NKTSEGMDGC(alkyl)EL-NH2
modifications: not fully specified (N-terminus); reading uncertain; also: alkyl group not given here
B7: UM206 (3 K = A) (peptide)
peptide: CNATSEGMDGCEL-NH2
modifications: cysteine pairing not given here
B8: UM206 (13 L = A) (peptide)
peptide: CNKTSEGMDGCEA-NH2
modifications: cysteine pairing not given here
B9: UM206 (6 E = A) (peptide)
peptide: CNKTSAGMDGCEL-NH2
modifications: cysteine pairing not given here
B10: UM206 (12 E = A) (peptide)
peptide: CNKTSEGMDGCAL-NH2
modifications: cysteine pairing not given here
B11: UM206 (10 G = A) (peptide)
peptide: CNKTSEGMDACEL-NH2
modifications: cysteine pairing not given here
B12: UM206 (12-13 EL = AA) (peptide)
peptide: CNKTSEGMDGCAA-NH2
modifications: cysteine pairing not given here
B13: UM206 (5 S = A) (peptide)
peptide: CNKTAEGMDGCEL-NH2
modifications: cysteine pairing not given here
B14: UM206 (9 D = A) (peptide)
peptide: CNKTSEGMAGCEL-NH2
modifications: cysteine pairing not given here
B15: peptide CNVSSHGIDGCDL (SEQ ID NO:18) (peptide)
peptide: CNVSSHGIDGCDL-NH2
modifications: cysteine pairing not given here
B16: UM206 (C = S) (peptide)
peptide: SNKTSEGMDGSEL
B17: UM206 - (deletion of the C-terminal Glutamic acid and Leucine) (peptide)
peptide: CNKTSEGMDGC-NH2
modifications: cysteine pairing not given here
B18: UM206 (C = A) (peptide)
peptide: ANKTSEGMDGAEL
B19: UM206 (11 C = A) (peptide)
peptide: CNKTSEGMDGAEL
B20: UM206 (4 T = A) (peptide)
peptide: CNKASEGMDGCEL-NH2
modifications: cysteine pairing not given here
B21: UM206 (2 N = A) (peptide)
peptide: CAKTSEGMDGCEL-NH2
modifications: cysteine pairing not given here
B22: UM206 (8 M = A) (peptide)
peptide: CNKTSEGADGCEL-NH2
modifications: cysteine pairing not given here
B23: UM206 (1 C = A) (peptide)
peptide: ANKTSEGMDGCEL
B24: UM206 (7 G = A) (peptide)
peptide: CNKTSEAMDGCEL-NH2
modifications: cysteine pairing not given here
B25: UM206 (4 T = A, 7 G = A, 9 D = A) (peptide)
peptide: CNKASEAMAGCEL-NH2
modifications: cysteine pairing not given here

Biological target: T1, rat frizzled-2 receptor (rat, UniProt Q08464 29-570)
Experiment: cell-based or functional assay

T1 sequence (Q08464 29-570): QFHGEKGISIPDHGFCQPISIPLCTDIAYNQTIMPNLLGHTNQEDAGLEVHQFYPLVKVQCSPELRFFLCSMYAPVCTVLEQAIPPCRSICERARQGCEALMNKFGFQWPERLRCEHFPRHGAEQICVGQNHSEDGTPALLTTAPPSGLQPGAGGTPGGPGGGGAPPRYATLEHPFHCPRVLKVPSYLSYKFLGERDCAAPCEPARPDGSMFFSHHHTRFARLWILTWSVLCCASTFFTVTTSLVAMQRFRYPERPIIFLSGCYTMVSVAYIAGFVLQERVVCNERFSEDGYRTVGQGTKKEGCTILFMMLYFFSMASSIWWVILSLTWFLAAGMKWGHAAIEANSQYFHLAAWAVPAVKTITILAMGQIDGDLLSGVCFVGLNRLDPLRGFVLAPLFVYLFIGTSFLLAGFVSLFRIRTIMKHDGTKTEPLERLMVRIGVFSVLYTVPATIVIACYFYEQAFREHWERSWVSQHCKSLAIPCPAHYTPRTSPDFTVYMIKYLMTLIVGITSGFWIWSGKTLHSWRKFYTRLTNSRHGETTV

Binder	IC50, inhibition of Wnt3a (10^-9 M)-induced luciferase activity, two-binding-state fit, high affinity site	IC50, inhibition of Wnt3a-induced luciferase activity	IC50, inhibition of Wnt3a (10^-9 M)-induced luciferase activity, single binding site fit	EC50, luciferase activity (amount of agonist that yields 50% of maximum activity)	fold increase of luciferase activity (TOPflash reporter, HEK cells)
B1	0.0169 nM	0.1 nM			
B2			15.2 nM		
B3				20 nM	
B4					12 fold

Biological target: T2, rat frizzled-1 receptor (rat, UniProt Q08463 69-641)
Experiment: cell-based or functional assay

T2 sequence (Q08463 69-641): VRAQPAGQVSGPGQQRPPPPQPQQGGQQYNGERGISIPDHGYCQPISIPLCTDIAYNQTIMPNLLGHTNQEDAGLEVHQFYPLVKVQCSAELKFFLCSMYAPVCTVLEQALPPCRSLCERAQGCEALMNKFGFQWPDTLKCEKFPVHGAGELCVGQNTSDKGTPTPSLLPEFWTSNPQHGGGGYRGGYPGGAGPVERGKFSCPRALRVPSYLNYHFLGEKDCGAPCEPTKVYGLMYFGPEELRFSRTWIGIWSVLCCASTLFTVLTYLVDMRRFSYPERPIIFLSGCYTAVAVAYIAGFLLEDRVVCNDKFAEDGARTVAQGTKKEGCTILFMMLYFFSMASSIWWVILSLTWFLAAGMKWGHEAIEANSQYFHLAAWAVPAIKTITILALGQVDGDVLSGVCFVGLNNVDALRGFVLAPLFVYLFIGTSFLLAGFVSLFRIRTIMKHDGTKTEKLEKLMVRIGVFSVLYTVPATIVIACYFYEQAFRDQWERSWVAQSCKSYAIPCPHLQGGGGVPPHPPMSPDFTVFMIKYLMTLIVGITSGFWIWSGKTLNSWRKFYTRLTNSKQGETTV

Binder	IC50, inhibition of Wnt3a (10^-9 M)-induced luciferase activity, two-binding-state fit, major binding site	IC50, inhibition of Wnt3a-induced luciferase activity	IC50, inhibition of Wnt3a (10^-9 M)-induced luciferase activity, single binding site fit	EC50, luciferase activity (amount of agonist that yields 50% of maximum activity)
B1	2.1 nM	1 nM		
B2			40 nM	
B3				10 nM

Biological target: T1, rat frizzled-2 receptor
Experiment: inferred by the filing from inhibition curves of Wnt3a-induced luciferase activity in transfected HEK293-superTOPflash cells
Description: To determine the inhibitory constant of UM206-8, HEK293-superTOPflash cells were transfected with either rFzd-1 or -2 and incubated with Wnt3a (10⁻⁹M) in the presence of increasing concentrations of either of the peptides (FIG. 15). For UM206, a biphasic inhibition curve was observed that was best fitted with a two-binding-state model.

Binder	fold higher affinity than to rFzd-1
B1	~100 fold

Biological target: T3, mouse Fzd-2 (mouse, UniProt Q9JIP6 29-570)
T3 construct: whole, on cells; also called mouse frizzled-2
Experiment: rhodamine-labeled UM206 on kidney and small intestine sections

T3 sequence (Q9JIP6 29-570): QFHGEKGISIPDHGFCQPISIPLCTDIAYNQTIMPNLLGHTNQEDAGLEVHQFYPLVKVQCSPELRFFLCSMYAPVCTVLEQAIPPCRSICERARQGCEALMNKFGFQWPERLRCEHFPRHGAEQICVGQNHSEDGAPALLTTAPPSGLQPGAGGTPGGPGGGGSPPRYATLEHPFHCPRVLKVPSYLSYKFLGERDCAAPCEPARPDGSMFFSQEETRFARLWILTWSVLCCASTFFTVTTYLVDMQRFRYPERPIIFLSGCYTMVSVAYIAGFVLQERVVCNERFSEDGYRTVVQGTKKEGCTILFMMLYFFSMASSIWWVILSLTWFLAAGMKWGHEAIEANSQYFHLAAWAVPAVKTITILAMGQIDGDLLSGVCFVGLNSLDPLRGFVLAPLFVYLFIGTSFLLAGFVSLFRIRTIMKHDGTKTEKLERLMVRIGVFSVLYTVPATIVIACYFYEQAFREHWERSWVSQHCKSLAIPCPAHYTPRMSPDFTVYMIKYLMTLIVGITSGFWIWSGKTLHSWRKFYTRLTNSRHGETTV

Binder	binding result
B5	binds

Biological target: T1, rat frizzled-2 receptor
Experiment: cell-based or functional assay
Remark: another data set of the same source

Binder	% of inhibition of Wnt3a-induced luciferase activity, peptide 1.10^-9 M
B6	12.4%
B7	84.9%
B8	86.5%
B9	84.7%
B10	85.5%
B11	83.3%
B12	74.3%
B1	75.1%
B13	87.3%
B14	60.5%
B15	62.4%
B16	17%
B17	61.2%
B18	8.39%
B19	84.9%
B20	59.4%
B21	79.5%
B22	85%
B23	82.6%
B24	63.1%
B25	17.5%

Biological target: T2, rat frizzled-1 receptor
Experiment: cell-based or functional assay
Remark: another data set of the same source

Binder	% of inhibition of Wnt3a-induced luciferase activity, peptide 1.10^-9 M
B6	1%
B7	70.8%
B8	65.9%
B9	70.8%
B10	65.9%
B11	69.9%
B12	66.8%
B1	72.2%
B13	74.3%
B14	40.5%
B15	45.3%
B16	0%
B17	18%
B18	0%
B19	67.2%
B20	28.1%
B21	68%
B22	67.6%
B23	70.8%
B24	52.6%
B25	11.2%

Biological target: T4, mouse Fzd-1 (mouse, UniProt O70421 69-642)
T4 construct: whole, on cells; also called mouse frizzled-1
Experiment: fluorescence imaging of small intestine and kidney sections

T4 sequence (O70421 69-642): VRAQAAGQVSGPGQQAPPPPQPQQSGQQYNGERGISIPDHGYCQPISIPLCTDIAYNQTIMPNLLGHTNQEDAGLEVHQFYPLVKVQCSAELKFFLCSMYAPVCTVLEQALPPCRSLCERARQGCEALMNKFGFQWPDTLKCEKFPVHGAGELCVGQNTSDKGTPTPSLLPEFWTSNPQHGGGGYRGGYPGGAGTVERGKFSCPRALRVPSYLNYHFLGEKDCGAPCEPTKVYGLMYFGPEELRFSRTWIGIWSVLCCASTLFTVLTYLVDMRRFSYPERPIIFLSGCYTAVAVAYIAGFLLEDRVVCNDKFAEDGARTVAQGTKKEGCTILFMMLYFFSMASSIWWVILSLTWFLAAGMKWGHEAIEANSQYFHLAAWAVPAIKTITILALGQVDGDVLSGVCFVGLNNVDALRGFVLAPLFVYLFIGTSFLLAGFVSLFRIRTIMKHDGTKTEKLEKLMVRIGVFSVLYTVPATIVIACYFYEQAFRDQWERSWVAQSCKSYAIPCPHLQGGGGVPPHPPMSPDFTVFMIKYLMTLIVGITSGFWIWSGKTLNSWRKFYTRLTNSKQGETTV

Binder	binding result
B5	binds
